Laboratory results reported in paper PMC4166925.

Assays:
[1] = biological target: T1, PmTbr T-box (Patiria miniata) (UniProt A0A075Q982)
T1 sequence: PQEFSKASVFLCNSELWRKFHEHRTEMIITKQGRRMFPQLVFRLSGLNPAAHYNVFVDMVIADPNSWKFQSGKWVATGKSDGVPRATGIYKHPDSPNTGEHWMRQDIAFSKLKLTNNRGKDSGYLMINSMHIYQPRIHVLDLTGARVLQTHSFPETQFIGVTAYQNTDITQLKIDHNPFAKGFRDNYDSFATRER

[2] = biological target: T2, SpTbr T-box (Strongylocentrotus purpuratus) (UniProt A0A7M7RD59)
T2 sequence: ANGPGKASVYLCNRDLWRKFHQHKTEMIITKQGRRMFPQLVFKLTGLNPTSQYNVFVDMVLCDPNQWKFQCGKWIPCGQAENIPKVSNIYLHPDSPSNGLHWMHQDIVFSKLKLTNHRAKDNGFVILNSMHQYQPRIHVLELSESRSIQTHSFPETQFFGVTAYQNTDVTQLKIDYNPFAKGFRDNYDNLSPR

[3] = test system: PmTbr DNA-binding domain (T-box) (Patiria miniata); test: SPR (steady state); details: SPR running buffer 50 mM Mops (pH not given; protein buffer 20 mM Mops pH 7.5), 150 mM NaCl, 1 mM DTT, 0.01% P20, 20 °C, 30 µl/min; streptavidin-coated CM5 …
[4] = test system: SpTbr DNA-binding domain (T-box) (Strongylocentrotus purpuratus); test: SPR (steady state); details: SPR running buffer 50 mM Mops (pH not given; protein buffer 20 mM Mops pH 7.5), 150 mM NaCl, 1 mM DTT, 0.01% P20, 20 °C, 30 µl/min; streptavidin-coated CM5 …

Sequence	binding signal (PBM E-score (-0.5 to 0.5)) [1]	binding signal (PBM E-score (-0.5 to 0.5)) [2]	Kd [3] [nM]	Kd [4] [nM]
AACACCTC (double strand) [8-mer AACACCTC]	0.491			
AAGGTGTC (double strand) [8-mer AAGGTGTC]		0.487		
AAGTGTGA (double strand) [8-mer AAGTGTGA]		0.488		
ACACCTCC (double strand) [8-mer ACACCTCC]	0.49			
ACACCTCG (double strand) [8-mer ACACCTCG]	0.49			
AGGTGCGA (double strand) [8-mer AGGTGCGA]	0.497	0.496		
AGGTGCTA (double strand) [8-mer AGGTGCTA]	0.491			
AGGTGTCA (double strand) [8-mer AGGTGTCA]	0.495	0.494		
AGGTGTCG (double strand) [8-mer AGGTGTCG]	0.492			
AGGTGTGA (double strand) [8-mer AGGTGTGA]	0.499	0.498		
AGGTGTTA (double strand) [8-mer AGGTGTTA]	0.496	0.494		
AGTGTGAA (double strand) [8-mer AGTGTGAA]		0.489		
ATCACACC (double strand) [8-mer ATCACACC]		0.488		
CACACCTC (double strand) [8-mer CACACCTC]	0.49	0.49		
CTCACACC (double strand) [8-mer CTCACACC]	0.491	0.494		
CTTTAGGTGACAAACGGTTTTCCGTTTGTCACCTAAAG [PmTbr Secondary Site Hairpin]			446	989
CTTTAGGTGTCGAACGGTTTTCCGTTCGACACCTAAAG [MmEomes Secondary Hairpin]			732	882
CTTTAGGTGTGAAACGGTTTTCCGTTTCACACCTAAAG [Primary Tbr Site Hairpin]			107	137
GACACCTC (double strand) [8-mer GACACCTC]	0.49			
GGGTGTGA (double strand) [8-mer GGGTGTGA]	0.492	0.493		
GGTGCGAA (double strand) [8-mer GGTGCGAA]		0.487		
GGTGTGAA (double strand) [8-mer GGTGTGAA]	0.496	0.497		
GTGTGAAA (double strand) [8-mer GTGTGAAA]	0.49	0.49		
GTGTGAAC (double strand) [8-mer GTGTGAAC]		0.493		
